Experimental data reported in patent publication US20200317768A1 (published 2020).

T1: human FcγRIIb extracellular domain, His-tagged (human, UniProt P31994 43-217)
T1 construct: also called FcgRIIb (human)
T1 sequence: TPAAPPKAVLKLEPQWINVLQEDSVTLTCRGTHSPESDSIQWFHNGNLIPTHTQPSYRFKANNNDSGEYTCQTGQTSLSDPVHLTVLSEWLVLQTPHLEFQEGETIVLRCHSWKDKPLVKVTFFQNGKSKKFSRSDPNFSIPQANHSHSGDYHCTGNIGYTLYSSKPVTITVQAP

T2: cynomolgus monkey FcγRIIa2 extracellular domain, His-tagged (cynomolgus monkey)
T2 construct: also called cyno FcγRIIa2; cynoFcgRIIa2
T2 chain: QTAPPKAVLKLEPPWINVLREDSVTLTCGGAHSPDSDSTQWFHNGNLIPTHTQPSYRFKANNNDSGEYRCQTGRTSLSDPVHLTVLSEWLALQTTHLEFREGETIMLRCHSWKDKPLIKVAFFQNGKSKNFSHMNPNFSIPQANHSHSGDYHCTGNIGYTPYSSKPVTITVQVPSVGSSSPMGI

T3: cynomolgus monkey FcγRIIIaS extracellular domain, His-tagged (cynomolgus monkey, UniProt Q8SPW2 21-206 at identity 1.00))
T3 construct: also called cyno FcγRIIIaS; cynoFcγRIIIaS
T3 chain: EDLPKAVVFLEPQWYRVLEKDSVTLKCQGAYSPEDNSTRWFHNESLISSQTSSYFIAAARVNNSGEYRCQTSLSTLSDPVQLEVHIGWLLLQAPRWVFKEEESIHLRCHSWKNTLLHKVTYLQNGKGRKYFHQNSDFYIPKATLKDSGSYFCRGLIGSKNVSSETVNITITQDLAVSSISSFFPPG

T4: cynomolgus monkey FcγRIIb extracellular domain, His-tagged (cynomolgus monkey)
T4 construct: also called cyno FcγRIIb; cynoFcγRIIb
T4 chain: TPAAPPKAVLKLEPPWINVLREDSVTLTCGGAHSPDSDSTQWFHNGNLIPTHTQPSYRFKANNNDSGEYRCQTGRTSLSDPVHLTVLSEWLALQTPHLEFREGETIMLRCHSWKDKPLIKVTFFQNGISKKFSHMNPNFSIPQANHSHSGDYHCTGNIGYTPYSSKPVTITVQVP

T5: human FcγRIIaR extracellular domain, His-tagged (human, UniProt P12318 34-217)
T5 construct: also called human FcγRIIa (type R); FcgRIIaR
T5 chain: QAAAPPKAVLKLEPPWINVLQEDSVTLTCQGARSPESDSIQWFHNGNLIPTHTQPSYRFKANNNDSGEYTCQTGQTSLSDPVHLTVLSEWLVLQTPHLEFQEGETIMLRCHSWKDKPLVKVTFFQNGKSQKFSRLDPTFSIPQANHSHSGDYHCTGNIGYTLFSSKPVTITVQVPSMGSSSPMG

T6: human FcγRIIaH extracellular domain, His-tagged (human, UniProt P12318 34-217)
T6 construct: also called human FcγRIIa (type H); FcgRIIaH
T6 sequence: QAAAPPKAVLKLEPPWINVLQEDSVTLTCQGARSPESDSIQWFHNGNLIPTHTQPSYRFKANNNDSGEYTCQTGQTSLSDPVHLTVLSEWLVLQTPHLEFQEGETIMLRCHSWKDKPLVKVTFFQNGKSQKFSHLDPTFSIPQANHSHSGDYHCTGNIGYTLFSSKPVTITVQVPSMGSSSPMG

T7: cynomolgus monkey FcγRIIa3 extracellular domain, His-tagged (cynomolgus monkey)
T7 construct: also called cyno FcγRIIa3; cynoFcgRIIa3
T7 chain: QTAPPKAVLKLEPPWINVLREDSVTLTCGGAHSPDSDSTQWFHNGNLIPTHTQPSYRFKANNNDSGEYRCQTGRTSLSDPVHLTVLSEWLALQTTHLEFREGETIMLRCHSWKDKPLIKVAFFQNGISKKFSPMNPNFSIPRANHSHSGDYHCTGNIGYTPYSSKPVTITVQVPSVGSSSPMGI


Legend:
Test in all cases: SPR; KD of SG1 / KD of variant;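 note: relative to parent M103205H795-SG1 carrying the SG1 human heavy chain constant region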
[1] = biological target: T1, human FcγRIIb extracellular domain, …
[2] = biological target: T8, human FcγRIIIaV extracellular domain, His-tagged (human, UniProt P08637 17-208)
T8 construct: also called FcgRIIIaV

[3] = biological target: T2, cynomolgus monkey FcγRIIa2 …
[4] = biological target: T3, cynomolgus monkey FcγRIIIaS …
[5] = biological target: T4, cynomolgus monkey FcγRIIb extracellular …
[6] = biological target: T5, human FcγRIIaR extracellular domain, …
[7] = biological target: T6, human FcγRIIaH extracellular domain, …
[8] = biological target: T7, cynomolgus monkey FcγRIIa3 …

T8 sequence (P08637 17-208 F176V): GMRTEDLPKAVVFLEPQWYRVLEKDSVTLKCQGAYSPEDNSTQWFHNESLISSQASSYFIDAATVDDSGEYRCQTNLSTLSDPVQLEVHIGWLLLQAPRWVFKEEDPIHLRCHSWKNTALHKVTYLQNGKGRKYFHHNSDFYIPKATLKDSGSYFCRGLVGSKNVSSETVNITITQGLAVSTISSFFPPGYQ

Row | KD fold (SG1 = 1) [1] | KD fold (SG1 = 1) [2] | KD fold (SG1 = 1) [3] | KD fold (SG1 = 1) [4] | KD fold (SG1 = 1) [5] | KD fold (SG1 = 1) [6] | KD fold (SG1 = 1) [7] | KD fold (SG1 = 1) [8] | Binder
1 | 7 fold | 5.06 fold | 3.4 fold | 5.37 fold | 5.3 fold | 5.2 fold | 2.6 fold | 8.5 fold | M103205H795-MY063/M103202L889-SK1 (antibody, human IgG1, kappa, Substitution put into M103205H795-SG1) heavy: not shown light: DIVMTQSPATLSLSPGERATLSCTSSQSVYHANWLSWFQQKPGQPPKLLIYWASTLAYGVPSRFSGSGSGTDFTLTISSLQPEDAATYYCAGGYGGGRYAFGQGTKVEIKRTVAAPSVFIFPPSDEQLKSGTASVVCLLNNFYPREAKVQWKVDNALQSGNSQESVTEQDSKDSTYSLSSTLTLSKADYEKHKVYACEVTHQGLSSPVTKSFNRGEC
2 | 1.9 fold | 3.68 fold | 2 fold | 3 fold | 1.6 fold | 1.6 fold | 1.4 fold | 2.5 fold | M103205H795-MY064/M103202L889-SK1 (antibody, human IgG1, kappa, Substitution put into M103205H795-SG1) heavy: not shown light: DIVMTQSPATLSLSPGERATLSCTSSQSVYHANWLSWFQQKPGQPPKLLIYWASTLAYGVPSRFSGSGSGTDFTLTISSLQPEDAATYYCAGGYGGGRYAFGQGTKVEIKRTVAAPSVFIFPPSDEQLKSGTASVVCLLNNFYPREAKVQWKVDNALQSGNSQESVTEQDSKDSTYSLSSTLTLSKADYEKHKVYACEVTHQGLSSPVTKSFNRGEC
3 | 1.5 fold | 0.68 fold | 0.1 fold | 0.43 fold | 0.4 fold | 0.7 fold | 0.2 fold | 0.9 fold | M103205H795-MY043/M103202L889-SK1 (antibody, human IgG1, kappa, Substitution put into M103205H795-SG1) heavy: not shown light: DIVMTQSPATLSLSPGERATLSCTSSQSVYHANWLSWFQQKPGQPPKLLIYWASTLAYGVPSRFSGSGSGTDFTLTISSLQPEDAATYYCAGGYGGGRYAFGQGTKVEIKRTVAAPSVFIFPPSDEQLKSGTASVVCLLNNFYPREAKVQWKVDNALQSGNSQESVTEQDSKDSTYSLSSTLTLSKADYEKHKVYACEVTHQGLSSPVTKSFNRGEC
4 | 2.7 fold | 0.58 fold | 1.9 fold | 0.67 fold | 1.8 fold | 2.1 fold | 1.9 fold | 3 fold | M103205H795-MY068/M103202L889-SK1 (antibody, human IgG1, kappa, Substitution put into M103205H795-SG1) heavy: not shown light: DIVMTQSPATLSLSPGERATLSCTSSQSVYHANWLSWFQQKPGQPPKLLIYWASTLAYGVPSRFSGSGSGTDFTLTISSLQPEDAATYYCAGGYGGGRYAFGQGTKVEIKRTVAAPSVFIFPPSDEQLKSGTASVVCLLNNFYPREAKVQWKVDNALQSGNSQESVTEQDSKDSTYSLSSTLTLSKADYEKHKVYACEVTHQGLSSPVTKSFNRGEC
5 | 2.9 fold | 3.38 fold | 3.2 fold | 4.19 fold | 2.5 fold | 2.8 fold | 1.6 fold | 2.6 fold | M103205H795-MY069/M103202L889-SK1 (antibody, human IgG1, kappa, Substitution put into M103205H795-SG1) heavy: not shown light: DIVMTQSPATLSLSPGERATLSCTSSQSVYHANWLSWFQQKPGQPPKLLIYWASTLAYGVPSRFSGSGSGTDFTLTISSLQPEDAATYYCAGGYGGGRYAFGQGTKVEIKRTVAAPSVFIFPPSDEQLKSGTASVVCLLNNFYPREAKVQWKVDNALQSGNSQESVTEQDSKDSTYSLSSTLTLSKADYEKHKVYACEVTHQGLSSPVTKSFNRGEC
6 | 1.4 fold | 0.9 fold | 1.5 fold | 0.77 fold | 1.1 fold | 1.2 fold | 0.6 fold | 0.3 fold | M103205H795-MY044/M103202L889-SK1 (antibody, human IgG1, kappa, Substitution put into M103205H795-SG1) heavy: not shown light: DIVMTQSPATLSLSPGERATLSCTSSQSVYHANWLSWFQQKPGQPPKLLIYWASTLAYGVPSRFSGSGSGTDFTLTISSLQPEDAATYYCAGGYGGGRYAFGQGTKVEIKRTVAAPSVFIFPPSDEQLKSGTASVVCLLNNFYPREAKVQWKVDNALQSGNSQESVTEQDSKDSTYSLSSTLTLSKADYEKHKVYACEVTHQGLSSPVTKSFNRGEC

Further lines, the binder ahead of its results:

Row | Binder | KD fold (SG1 = 1) [1] | KD fold (SG1 = 1) [2] | KD fold (SG1 = 1) [3] | KD fold (SG1 = 1) [4] | KD fold (SG1 = 1) [5] | KD fold (SG1 = 1) [6] | KD fold (SG1 = 1) [7] | KD fold (SG1 = 1) [8]
7 | M103205H795-MY041/M103202L889-SK1 (antibody, human IgG1, kappa, Substitution put into M103205H795-SG1) heavy: not shown light: DIVMTQSPATLSLSPGERATLSCTSSQSVYHANWLSWFQQKPGQPPKLLIYWASTLAYGVPSRFSGSGSGTDFTLTISSLQPEDAATYYCAGGYGGGRYAFGQGTKVEIKRTVAAPSVFIFPPSDEQLKSGTASVVCLLNNFYPREAKVQWKVDNALQSGNSQESVTEQDSKDSTYSLSSTLTLSKADYEKHKVYACEVTHQGLSSPVTKSFNRGEC | 1.6 fold | 1.69 fold | 1.2 fold | 1.38 fold | 0.5 fold | 0.9 fold | 0.4 fold | 2.3 fold
8 | M103205H795-MY065/M103202L889-SK1 (antibody, human IgG1, kappa, Substitution put into M103205H795-SG1) heavy: not shown light: DIVMTQSPATLSLSPGERATLSCTSSQSVYHANWLSWFQQKPGQPPKLLIYWASTLAYGVPSRFSGSGSGTDFTLTISSLQPEDAATYYCAGGYGGGRYAFGQGTKVEIKRTVAAPSVFIFPPSDEQLKSGTASVVCLLNNFYPREAKVQWKVDNALQSGNSQESVTEQDSKDSTYSLSSTLTLSKADYEKHKVYACEVTHQGLSSPVTKSFNRGEC | 2.4 fold | 3.52 fold | 1.8 fold | 3.27 fold | 1.4 fold | 2.2 fold | 1.3 fold | 4 fold
9 | M103205H795-MY048/M103202L889-SK1 (P271D) (antibody, human IgG1, kappa, Here the P271D molecule is meant; Put into M103205H795-SG1) heavy: not shown light: DIVMTQSPATLSLSPGERATLSCTSSQSVYHANWLSWFQQKPGQPPKLLIYWASTLAYGVPSRFSGSGSGTDFTLTISSLQPEDAATYYCAGGYGGGRYAFGQGTKVEIKRTVAAPSVFIFPPSDEQLKSGTASVVCLLNNFYPREAKVQWKVDNALQSGNSQESVTEQDSKDSTYSLSSTLTLSKADYEKHKVYACEVTHQGLSSPVTKSFNRGEC | 1.5 fold | 1.33 fold | 0.5 fold | 0.97 fold | 0.5 fold | 0.5 fold | 0.4 fold | 3.5 fold
10 | M103205H795-MY045/M103202L889-SK1 (antibody, human IgG1, kappa, Substitution put into M103205H795-SG1) heavy: not shown light: DIVMTQSPATLSLSPGERATLSCTSSQSVYHANWLSWFQQKPGQPPKLLIYWASTLAYGVPSRFSGSGSGTDFTLTISSLQPEDAATYYCAGGYGGGRYAFGQGTKVEIKRTVAAPSVFIFPPSDEQLKSGTASVVCLLNNFYPREAKVQWKVDNALQSGNSQESVTEQDSKDSTYSLSSTLTLSKADYEKHKVYACEVTHQGLSSPVTKSFNRGEC | 1.6 fold | 3.38 fold | 1.3 fold | 2.57 fold | 0.8 fold | 0.7 fold | 0.4 fold | 2.5 fold
